Source: paper PMC3695523, “Reconstitution and characterization of eukaryotic N6-threonylcarbamoylation of tRNA using a minimal enzyme system” (Nucleic Acids Research, 2013)

Substrate: C[C@@H](O)[C@H](N)C(=O)O
Assay: HPLC nucleoside analysis of t6A formed on tRNA-Ile in reconstituted assay
Type: biochemical, Saccharomyces cerevisiae
Settings: coupled two-enzyme system: Sua5 plus yeast Qri7 (30-407), 2 uM Sua5/Qri7, 20 uM tRNA-Ile, 2 mM ATP, 1 mM NaHCO3, 5 mM MnCl2, 200 mM NaCl, 50 mM Tris-HCl pH 8.0, ambient temperature, 60 min

B1: Sua5 (Saccharomyces cerevisiae S288C) (protein)
chain: MYLGRHFLAMTSKALFDTKILKVNPLSIIFSPDAHIDGSLPTITDPETEAALVEAARIIRDTDETVAFPTETVYGLGGSALNDNSVLSIYRAKNRPSDNPLITHVSSIDQLNRKVFNQPHLSGTSLFDNIPSIYRPLISSLWPGPLTILLPVPSSEHSALSKLTTADQPTFAVRIPANPVARALIALSDTPIAAPSANASTRPSPTLASHVYHDLKDKIPIILDGGACKVGVESTVVDGLCNPPTLLRPGGFTYEEIVKLGGEAWSLCKVENKKTVEKGEKVRTPGMKYRHYSPSAKVVLLVPHCEGDGILKGVDRMERLKRLIETELKANSNIKKIAILTSLKLRDSDLQSKIFNEPDFSSKTFIIERLGQSGEEIQTNLFAALRKVDENDKVDLIFVEGINEEGEGLAVMNRLRKAAANNCIQF
notes: full length; N-terminal hexa-histidine or GST tag; expressed in E. coli BL21 (DE3) CodonPlus
Km: 0.11 ± 0.014 µM
